According to publication PMC8191756:

How the values were obtained:
[1] = target: UBC9 (UniProt P63279); experiment: co-IP, Strep-ALKBH5 with Flag-UBC9; conditions: reference: wild type
[2] = target: SENP1 (UniProt Q9P0U3); experiment: co-IP; conditions: reference: wild type

Substance | binding against the reference ([1]; sites S87) | binding against the reference ([2]; sites S87) | binding against the reference ([1]; sites S325) | binding against the reference ([2]; sites S325)
ALKBH5 (from UniProt Q6P6C2) S87A | weaker | stronger |  | 
ALKBH5 (from UniProt Q6P6C2) S325A |  |  | weaker | stronger
